Patent publication US20090291088A1, “THERAPEUTIC COMBINATIONS OF ANTI-IGF-1R ANTIBODIES AND OTHER COMPOUNDS” (Biogen Idec MA Inc., priority 2008, published 2009)

Tests used:
hIGF-1R-Fc [1] = target: T1, hIGF-1R-Fc (Homo sapiens, UniProt P08069); assay: IGF-1 and IGF-2 blocking ELISA-based competition assay; assay type: binding
T1 construct: (3) human IGF-1R(1-903)-Fc (hIGF-1R-Fc, Biogen Idec); host or cells: CHO
Protocol: hIGF-1R-Fc was biotinylated using EZ-Link Sulfo-NHS-LC-Biotin according to the protocol provided by the manufacturer (Pierce Cat. No. 21335). Biotinylated human IGF-1R-Fc at 5 μg/ml was added to the wells of SigmaScreen streptavidin-coated 96-well plates (Sigma, Cat. No. M5432-5EA; Sigma-Aldrich Corp. (St. Louis, Mo., USA)) at 100 μL/well and incubated overnight at 2-8° C. The plates were then washed four times with 200 μL/well PBST. […] Dilutions were made from 1.3 μM to 10 pM for M13-C06 and M14-C03, from 5.2 μM to […] for M14-G11, and from 2.6 μM to 10 pM for both P1E2 and αIR3. Human IGF-2 His was prepared at 320 nM in PBST, 1.0 mg/ml BSA. The antibodies were serial diluted (from […] to 5 pM for M13-C06 and M14-C03, from 5.2 μM to 5 pM for M14-G11 and αIR3, and from 5.2 μM to 20 pM for P1E2) using a solution of 320 nM IGF-2 His. The dilutions were added to the plates in duplicate at 100 μL/well and the plates were incubated at RT for 1 hour. The plates were then washed four times with 200 μL/well PBST. An HRP-conjugated anti-Histag antibody (Penta-His HRP Conjugate, QIAGEN, Cat. No. 1014992) was diluted 1:1000 in PBST and added to plates at 100 μL/well, and the plates were incubated at RT for one hour. […] The absorbance of each well was determined at 450 nm, and the results were normalized and plotted against the log of antibody concentration.

hIGF-1R(1-462)-Fc = target: T2, hIGF-1R(1-462)-Fc (Homo sapiens, UniProt P08069); assay: SPR binding of immobilized antibodies to truncated hIGF-1R(1-462)-Fc versus hIGF-1R(1-903)Fc; conditions: surface immobilized antibody
T2 construct: host or cells: CHO
Excerpt: Next, we investigated whether M13-C06 binds the putative ligand binding domains of IGF-1R (L1-CR-L2). We generated a truncated version of the receptor containing the N-terminal three domains (residues 1-462) fused to an IgG1-Fc and compared its ability to bind M13-C06, M14-C03, and M14-G11 to that of the full-length receptor ectodomain construct, hIGF-1R-Fc, using surface plasmon resonance (SPR).

[2] = target: T3, recombinant human IGF-1R-10His (Homo sapiens, UniProt P08069); assay: SPR, antibodies and Fabs on IGF-1R-His captured via PENTA-His antibody; assay type: binding; conditions: full-length antibodies, 64 nM to 0.5 nM
T3 construct: denoted hIGF-1R(1-902)-His10, was purchased from R&D systems (Cat. No. 305-GR-050); purchased R&D Systems 305-GR-050

hIGF-1R-Fc [3] = target: T1, hIGF-1R-Fc; assay: Antibody cross-blocking ELISA with biotinylated M13-C06 or M14-G11; assay type: binding
Protocol: The ability of various antibodies to block M13-C06 or M14-G11 was determined using biotinylated version of both antibodies and hIGF-1R-Fc. Briefly, 50 μL of 2 μg/mL hIGF-1R-Fc in 1×PBS were coated per well of a 96-well clear MaxiSorp plate (Nunc) for 2 hours at room temperature (RT, no shaking). Plates were washed with 1×PBS and blocked overnight at 2-8° C. using a PBS/1% BSA solution. Plates were washed and incubated with a 100 μL mixture of biotinylated M13-C06 or biotinylated M14-G11 (80 ng/mL) and inhibitor antibody for 1 hour at RT. Inhibitor antibodies were serially diluted (5-fold dilutions) from 40 μg/mL to 3 ng/mL. M13-C06 and M14-G11 were biotinylated using EZ-Link Sulfo-NHS-LC-Biotin according to protocol provided by the manufacturer (Pierce Cat. No. 21335). A control was also performed by serial dilution of a non-IGF-1R specific IgG4 isotype control antibody with biotinylated M13-C06 or biotinylated M14-G11. Plates were washed and shaken for 1 hour at RT with 100 μL/well streptavidin-HRP (1:4000 dilution into blocking buffer, Southern Biotech Cat. No. 7100-05). Plates were washed and 100 μL/well SureBlue Reserve TMB Microwell Peroxidase Substrate (KPL, Cat. No. 53-00-01) was added to the wells. Detection of the presence of biotinylated M13-C06 or M14-G11 was performed by reading the absorbance at 650 nm every 5 minutes using a Wallac 1420-041 Multilabel Counter plate reader.

human INSR(28-956)-His10 = target: T4, human INSR(28-956)-His10 (Homo sapiens, UniProt P06213); assay: SPR, receptor ectodomain injected over immobilized antibodies: INSR; assay type: binding; conditions: full-length fully human antibodies; up to 2 μM receptor
T4 construct: human INSR(28-956)-His10 (INSR (R&D systems)); purchased R & D Systems 1544-IR
Protocol: SPR analyses were performed using a Biacore3000. The instrument was set to 25° C. and assays performed with running buffer HBS-EP pH 7.2 purchased from Biacore (Biacore, Cat. No. BR-1001-88). The fully human antibodies, M13-C06, M14-C03, and M14-G11 were immobilized to ˜10,000 RU on Biacore CM5 Research Grade Sensor Chip surfaces using the standard NHS/EDC-amine reactive chemistry according to protocols supplied by Biacore. For immobilization, the antibodies were diluted to 40 μg/mL in a 10 mM Acetate pH 4.0 buffer. To investigate the relative kinetics of association and dissociation of the full-length ectodomains of human IGF-1R(1-902)-His10 (hIGF-1R-His10 (R&D systems)) and human INSR(28-956)-His10 (INSR (R&D systems)) to each of the human antibodies, increasing concentrations of hIGF-1R-His10 or INSR were injected over the sensorchip surfaces. The hIGF-1R-His10 concentration series ranged from 1.0 nM to 250 nM while the INSR concentrations ranged from 1.0 nM to 2 μM. All antibody surfaces were reliably regenerated with 100 mM Glycine, pH 2.0. […] Flow rates were 20 μl/min. (“His10” denotes a 10-residue histidine tag on the C-terminus of the constructs.)

binding to truncated hIGF-1R(1-462)-Fc compared with full-length hIGF-1R-Fc (hIGF-1R(1-462)-Fc): dramatically reduced
binding to immobilized recombinant human IGF-1R (SPR) [2]: strong binding
binding of INSR to immobilized antibody surface (human INSR(28-956)-His10): little binding activity
B1: M14-C03: anti-IGF-1R antibody, allosteric blocker of IGF-1 and IGF-2 (antibody, V domains shown)
VH: EVQLLESGGGLVQPGGSLRLSCAASGFTFSKYMMSWVRQAPGKGLEWVSYISPSGGLTWYADSVKGRFTISRDNSKNTLYLQMNSLRAEDTAVYYCARDGARGYGMDVWGQGTTVTVSS
VL: DIQMTQSPATLSLSPGERATLSCRASQSVSSYLAWYQQKPGQAPRLLIYDASNRATGIPARFSGSGSGTDFTLTISSLEPEDFAVYYCQQRSNWPPEVTFGPGTKVDIK
modifications: Antibody variable heavy chain sequence; Antibody variable light chain sequence
blocking of IGF-1 binding to IGF-1R (hIGF-1R-Fc [1]; 320 nM IGF-1 His): block both IGF-1 and IGF-2 binding to IGF-1R
blocking of IGF-2 binding to IGF-1R (hIGF-1R-Fc [1]; 320 nM IGF-2 His): block both IGF-1 and IGF-2 binding to IGF-1R
M13-C06 cross-blocking (hIGF-1R-Fc [3]): +++++ (+++++ = antibody binding competition relative to itself (90-100%))
